The supplement of paper PMC10567573

B1: PRKX (parent)
chain: KLLVVDRTRRLGNMKNGANDVKHH

Variants of: B1
Assay: protein stability index of a GFP-peptide fusion (GPS, HEK-293T) (PSI 1-6); higher = more stable
Conditions: c terminus: a fixed tail appended
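Also: lentivirally expressed fusions sorted by FACS into six bins by GFP to DsRed ratio, PSI derived from sequencing read proportions per bin multiplied by bin number.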

Protein stability index of substitutions, site by site:
T8: G 2.55; E 3.38; S 2.67; L 2.47; I 1.97; H 2.97; P 2.74; F 2.56; M 2.54
R10: L 2.82; V 3.08; Q 3.65
K22: S 3.52; I 2.32; V 2.88; E 3.58; T 2.99; Y 2.5; C 2.7; N 3.06; Q 3.27; D 3.42
G17: S 2.85; D 3.5; A 3.05; H 3.4
H23: N 3.72; K 3.4; G 2.92; Q 2.69; I 2.67; F 2.53; P 3.37; M 2.33; W 3.4; D 3.68
L3: P 3.72; H 4; S 4.29; N 3.62; Q 3.68; G 3.93
V5: N 3.3; I 2.33; K 3.56; G 3.32; L 2.6; S 3.62; M 2.95
D20: I 2.09; R 2.53; W 2.3; H 2.89
D6: Y 2.29; F 3.18; Q 2.03; L 1.98; H 2.82; T 2.52
N16: L 2.69; M 2.26; K 3.19; F 2.42; E 3.18; V 2.62; S 3.27
M14: I 3.31; E 3.8; C 2.85; D 4.09; T 3; K 3.85; R 2.77; H 3.54
R9: F 2.76; G 3.13; V 2.6; M 2.99; T 3.21; D 3.4; H 3.07; Q 3.38
K1: T 3.45; C 1.85; S 3.51; H 2.98; Y 2.29; G 3.38
N19: I 2.29; S 3.16; T 3.11; D 3.12; H 2.75; A 2.84; F 2.32; V 2.64
L2: R 3.69; V 3.52; F 3.22; P 4.29; Y 3.04; W 2.87
V21: T 3.39; D 3.54; F 3.22; M 3.06; E 4.12; H 3.43
G12: M 2.24; Y 2.5; S 3.02; E 3.38; H 3; T 2.95
H24: T 3.25; F 2.36; M 2.63; K 3; G 2.75; V 2.65; A 3.61; E 3.96; N 2.81; P 2.91; R 3.1
N13: Y 3; R 2.75; S 2.91; W 2.6; L 2.31; I 2.54
K15: C 2.57; M 2.73; I 2.73; E 3.92; F 2.85; L 2.86; R 3.6
L11: P 3.57; Q 3.42; T 3.47; H 3.64; E 3.7; I 3.22; W 2.67; V 3.09; G 3.21
V4: R 2.86; G 3.32; H 3.62; E 3.46; I 2.46; W 2.66; S 3.65
R7: K 2.56; D 4.05; H 3.03; Q 3.97; C 2.6; I 2.13
A18: P 2.87; Y 2.29; V 2.63; D 3.85; E 3.67; H 3.34; R 2.97
